{"source": "patent US20150004637A1", "about": "“SYSTEMS AND METHODS FOR IMAGING AT HIGH SPATIAL AND/OR TEMPORAL PRECISION” (President and Fellows of Harvard College, priority 2011, published 2015)", "key": {"[1]": {"test_system": "cultured mouse hippocampal neurons", "assay": "Optopatch: optical stimulation and recording in neurons", "assay_type": "cell-based", "conditions": "red light 230 W/cm^2, 640 nm", "source_text": "In another example, a genetic construct termed “Optopatch” was used to provide simultaneous optical stimulation and recording from neurons. One embodiment of the Optopatch construct consisted of a bicistronic vector for co-expression of channelrhopsin 64 (ChR64)-mOrange II and archaerhodopsin 3 (Arch)-eGFP. This construct is depicted in FIG. 18A. The abbreviations used in the figure may be interpreted as follows. ss: Signaling sequence designed to improve the trafficking of Arch to the plasma membrane; Arch: Archaerhodopsin 3; eGFP: Enhanced green fluorescent protein; ER2: Endoplasmic reticulum export motif, designed to improve the trafficking of Arch to the plasma membrane; P2A: porcine teschovirus-1 2A sequence, a ribosomal skip-site leading to expression of two proteins from a single mRNA transcript; ChR64: Channelrhodopsin 64, a blue light-activated ion channel; mOr2: mOrange 2 fluorescent protein. […]\nWhole-field illumination with pulses of blue light (20 mW/cm^2, 10 ms, 488 nm, repeated at 10 Hz) led to flashes of red fluorescence (em: 660-760 nm), detected on a high speed EMCCD camera. […] The optically-recorded fluorescence waveform coincided closely with the electrically recorded waveform on a single-trial basis (as shown in FIG. 18C), with a noise in the optically recorded voltage of 1.1 mV at a 1 kHz acquisition rate."}, "[2]": {"test_system": "HEK 293 cells", "assay": "Arch fluorescence as a function of membrane potential, whole-cell voltage clamp", "assay_type": "cell-based", "conditions": "for Approx ΔF/F per 100 mV: Table 2, described herein", "experimental": "Fluorescence of Arch in HEK 293 cells supplemented with about 5 μM all-trans retinal (See Methods 4) was readily imaged in an inverted fluorescence microscope with red illumination (λ=640 nm, about 20 mW, and about I=540 W/cm^2), a high numerical aperture objective (NA), a Cy5 filter set, and an EMCCD camera (See Methods 5, FIG. 3A). […] Cells not expressing Arch were not fluorescent.\n(4) HEK cell culture. HEK-293 cells were grown at 37° C., 5% CO2, in DMEM supplemented with 10% FBS and penicillin-streptomycin. Plasmids were transfected using Lipofectamine and PLUS reagent (Invitrogen) following the manufacturer's instructions, and assayed between 48-72 hours later. The day before recording, cells were re-plated onto glass-bottom dishes (MatTek) at a density of ˜5000 cells/cm^2.\nThe concentration of endogenous retinal in the HEK cells was not known, so the cells were supplemented with retinal by diluting stock retinal solutions (40 mM, DMSO) in growth medium to a final concentration of 5 micromolar, and then placing the cells back in the incubator for 1-3 hours. All imaging and electrophysiology were performed in Tyrode buffer (containing, in mM: 125 NaCl, 2 KCl, 3 CaCl2, 1 MgCl2, 10 HEPES, 30 glucose pH 7.3, and adjusted to 305-310 mOsm with sucrose). Only HEK cells having reversal potentials between −10 and −40 mV were included in the analysis.\n(5) Microscopy. Simultaneous fluorescence and whole-cell patch clamp recordings were acquired on a home-built, inverted epifluorescence microscope, operated at room temperature. One goal was to collect fluorescence with high efficiency, while also achieving a large enough field of view to image an entire neuron and its processes. Typically, microscope objectives offer a tradeoff between magnification and light-gathering capacity (numerical aperture). Additionally, the ability to change magnification while maintaining a patch on a single cell was important in some cases. Typically the vibrations associated with switching objectives—particularly water or oil immersion objectives—are incompatible with simultaneous patch clamp. In addition, in some cases, the capability to split the field of view into two wavelength bands, and to change magnification without changing the registration of the two halves of the image was important.\n(6) Electrophysiology. Filamented glass micropipettes (WPI) were pulled to a tip resistance of 3-10 megohm fire polished, and filled with internal solution (containing, in mM: 125 potassium gluconate, 8 NaCl, 0.6 MgCl2, 0.1 CaCl2, 1 EGTA, 10 HEPES, 4 Mg-ATP, 0.4 Na-GTP, pH 7.3; adjusted to 295 mOsm with sucrose). The micropipettes were positioned with a Burleigh PCS 5000 micromanipulator. Whole-cell, voltage clamp recordings were acquired using an AxoPatch 200B amplifier (Molecular Devices), filtered at 2 kHz with the internal Bessel filter, and digitized with a National Instruments PCIE-6323 acquisition board at 10 kHz. […]\n(7) Ramp and step-response of Arch WT and D95N. To measure fluorescence as a function of membrane potential, a triangle wave was applied, with amplitude from −150 mV to +150 mV and period 12 s, with video recording at 100 ms per frame. A pixel weight matrix was calculated according to Eq. S2 (below) and applied to the movie images to generate a fluorescence number for each frame. These fluorescence values were divided by their minimum value (at V=−150 mV). […] Background subtraction from the raw fluorescence would have yielded considerably larger values of delta-F/F."}}}
{"molecule": "Archaerhodopsin 3 (protein, Halorubrum sodomense, Microbial rhodopsin from Halorubrum sodomense, light-driven proton pump used as fluorescent voltage indicator; experiments used an Arch-eGFP fusion) MDPIALQAGYDLLGDGRPETLWLGIGTLLMLIGTFYFLVRGWGVTDKDAREYYAVTILVPGIASAAYLSMFFGIGLTEVTVGGEMLDIYYARYADWLFTTPLLLLDLALLAKVDRVTIGTLVGVDALMIVTGLIGALSHTAIARYSWWLFSTICMIVVLYFLATSLRSAAKERGPEVASTFNTLTALVLVLWTAYPILWIIGTEGAGVVGLGIETLLFMVLDVTAKVGFGFILLRSRAILGDTEAPEPSAGADVSAAD", "values": [{"measurement": "outward photocurrent mediated by Arch", "setting": "[1]; n=6 cells", "result": "34±7", "unit": "pA"}, {"measurement": "hyperpolarization of cells by Arch photocurrent", "setting": "[1]; n=8 cells", "result": "6.1±1.1", "unit": "mV"}, {"measurement": "Approx ΔF/F per 100 mV", "setting": "[2]", "result": 66, "unit": "%"}, {"measurement": "photobleaching", "setting": "[2]; continuous 10-minute exposure, 640 nm, about 540 W/cm^2, HEK 293 cells", "result": "about 17%"}]}
{"molecule": "Arch D95N: Archaerhodopsin 3 with aspartic acid 95 mutated to asparagine; non-pumping voltage indicator (protein, UniProt P96787 7-258, looked up, variant D95N) Archaerhodopsin-3: QAGYDLLGDGRPETLWLGIGTLLMLIGTFYFLVRGWGVTDKDAREYYAVTILVPGIASAAYLSMFFGIGLTEVTVGGEMLDIYYARYANWLFTTPLLLLDLALLAKVDRVTIGTLVGVDALMIVTGLIGALSHTAIARYSWWLFSTICMIVVLYFLATSLRSAAKERGPEVASTFNTLTALVLVLWTAYPILWIIGTEGAGVVGLGIETLLFMVLDVTAKVGFGFILLRSRAILGDTEAPEPSAGADVSAAD", "values": [{"measurement": "greater sensitivity than wild-type", "setting": "[2]", "result": 50, "unit": "%"}, {"measurement": "Approx ΔF/F per 100 mV", "setting": "[2]", "result": 100, "unit": "%"}, {"measurement": "increase in fluorescence between −150 mV and +150 mV", "setting": "[2]; whole-cell voltage clamp, no background subtraction", "result": "about 3 fold"}]}
